Experimental data from publication PMC4822050, “Hemi-methylated DNA opens a closed conformation of UHRF1 to facilitate its histone recognition” (Nature Communications, 2016).
Numbering of substitutions follows the chain as printed. In names and notes the source's numbering stands.

T1: Spacer (residues 587–674) of UHRF1 (Homo sapiens, UniProt Q96T88)
T1 construct: Spacer (residues 587–674); GST (N, cleaved yes); made in house; host or cells: E. coli BL21 (DE3)
T1 sequence (Q96T88 587-674): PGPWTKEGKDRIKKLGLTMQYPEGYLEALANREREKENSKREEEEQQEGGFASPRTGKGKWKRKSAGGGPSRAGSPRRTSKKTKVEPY

T2: TTD (residues 134–285) of UHRF1 (Homo sapiens, UniProt Q96T88)
T2 construct: TTD (residues 134–285); GST (N, cleaved yes); made in house; host or cells: E. coli BL21 (DE3)
T2 sequence (Q96T88 134-285): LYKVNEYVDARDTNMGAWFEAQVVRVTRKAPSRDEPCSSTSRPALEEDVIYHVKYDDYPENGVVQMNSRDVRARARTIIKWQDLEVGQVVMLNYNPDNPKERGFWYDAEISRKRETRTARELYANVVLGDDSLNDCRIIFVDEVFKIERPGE

B1: SRA-Spacer-661: UHRF1 residues 414–661 (protein, UniProt Q96T88 414-661, looked up, fragment)
chain: PSNHYGPIPGIPVGTMWRFRVQVSESGVHRPHVAGIHGRSNDGAYSLVLAGGYEDDVDHGNFFTYTGSGGRDLSGNKRTAEQSCDQKLTNTNRALALNCFAPINDQEGAEAKDWRSGKPVRVVRNVKGGKNSKYAPAEGNRYDGIYKVVKYWPEKGKSGFLVWRYLLRRDDDEPGPWTKEGKDRIKKLGLTMQYPEGYLEALANREREKENSKREEEEQQEGGFASPRTGKGKWKRKSAGGGPSRAGS
B2: TTD-PHDRR295,296DD: mutation R295D/R296D (within the Linker) of TTD–PHD (protein)
chain: LYKVNEYVDARDTNMGAWFEAQVVRVTRKAPSRDEPCSSTSRPALEEDVIYHVKYDDYPENGVVQMNSRDVRARARTIIKWQDLEVGQVVMLNYNPDNPKERGFWYDAEISRKRETRTARELYANVVLGDDSLNDCRIIFVDEVFKIERPGEGSPMVDNPMDDKSGPSCKHCKDDVNRLCRVCACHLCGGRQDPDKQLMCDECDMAFHIYCLDPPLSSVPSEDEWYCPECRND
modifications: left off: GST, end not stated, cleaved
notes: mutation R295D/R296D (within the Linker) of TTD–PHD
B3: TTD: tandem Tudor domain of human UHRF1 (residues 134–285) (protein, UniProt Q96T88 134-285, looked up, fragment)
chain: T2 sequence (Q96T88 134-285)
modifications: tandem Tudor domain
B4: TTDD142A,E153A: mutation D142A/E153A of the TTD (protein)
chain: T2 sequence (Q96T88 134-285) with D9A, E20A
modifications: left off: GST, end not stated, cleaved
notes: mutation D142A/E153A of the TTD
B5: Spacer∆665-669: internal deletion of the Spacer, residues 665–669 (protein)
chain: PGPWTKEGKDRIKKLGLTMQYPEGYLEALANREREKENSKREEEEQQEGGFASPRTGKGKWKRKSAGGGPSRAGSPRRKVEPY
modifications: left off: GST, end not stated, cleaved
B6: Spacer∆670-674: deletion of the Spacer, residues 670–674 (protein)
chain: B5 chain with K79T, V80S, E81K, P82K, Y83T
modifications: left off: GST, end not stated, cleaved
B7: Spacer∆650-654: internal deletion of the Spacer, residues 650–654 (protein)
chain: PGPWTKEGKDRIKKLGLTMQYPEGYLEALANREREKENSKREEEEQQEGGFASPRTGKGKWKRGPSRAGSPRRTSKKTKVEPY
modifications: left off: GST, end not stated, cleaved
B8: Spacer∆655-659: internal deletion of the Spacer, residues 655–659 (protein)
chain: B7 chain with G64K, P65S, S66A, R67G, A68G
modifications: left off: GST, end not stated, cleaved
B9: Spacer∆660-664: internal deletion of the Spacer, residues 660–664 (protein)
chain: B5 chain with G74T, P76K, R77K, R78T
modifications: left off: GST, end not stated, cleaved
B10: SpacerK648D: mutation K648D of the Spacer (protein)
chain: T1 sequence (Q96T88 587-674) with K62D
modifications: left off: GST, end not stated, cleaved
notes: mutation K648D of the Spacer
B11: SpacerS666D: mutation S666D of the Spacer, negative control (protein)
chain: T1 sequence (Q96T88 587-674) with S80D
modifications: left off: GST, end not stated, cleaved
notes: mutation S666D of the Spacer, negative control
B12: SpacerS651D: mutation S651D of the Spacer (protein)
chain: T1 sequence (Q96T88 587-674) with S65D
modifications: left off: GST, end not stated, cleaved
notes: mutation S651D of the Spacer
B13: SpacerR649A: mutation R649A of the Spacer (protein)
chain: T1 sequence (Q96T88 587-674) with R63A
modifications: left off: GST, end not stated, cleaved
notes: mutation R649A of the Spacer
B14: SpacerS639D: mutation S639D of the Spacer, negative control (protein)
chain: T1 sequence (Q96T88 587-674) with S53D
modifications: left off: GST, end not stated, cleaved
notes: mutation S639D of the Spacer, negative control
B15: Spacer ∆642-651: internal deletion of the Spacer, residues 642–651 (protein)
chain: PGPWTKEGKDRIKKLGLTMQYPEGYLEALANREREKENSKREEEEQQEGGFASPRAGGGPSRAGSPRRTSKKTKVEPY
modifications: left off: GST, end not stated, cleaved

Target: FAM-12bp-HM-DNA
Assay: Fluorescence polarization, 12-bp FAM-hm-DNA
Assay type: binding
Conditions: FP, 25 °C, 20 min; 20 mM HEPES pH 7.5, 175 mM NaCl, 8% glycerol, 1 mM DTT; triplicate; Fig. 5b and Supplementary Table 4
Description: A 6-carboxy-fluorescein (FAM)-labelled primer, 5′-CCATGCGCTGAC-3′, was annealed to a primer 5′-GTCAGXGCATGG-3′ (X=5-methyldeoxycytosine). The hemi-methylated double-strand DNA was used in both electrophoretic mobility-shift assay and FP assays. […] The samples were subjected to a 10% polyacrylamide gel electrophoresis and run in 0.5 × Tris-borate-EDTA buffer at 100 V for 1 h at 4 °C. The results were visualized on Tanon-5200 Chemiluminescent Imaging System (Tanon Science & Technology Co., Ltd).
FP measurements were performed at 25 °C on Synergy 4 Microplate Reader (BioTek). The 16-bp and 20-bp FAM-labelled hm-DNA (lower strand: 5′-GTGTCAGXGCATGGCC-3′ and 5′-CCGTGTCAGXGCATGGCCAT-3′, respectively. X=5-methyldeoxycytosine) were used in the FP experiment to test the effect of DNA length on the protein/DNA interaction. All experiments were performed in triplicate. The curves were fitted by GraphPad Prism 5. For salt concentration-dependent FP experiments, the reaction buffer contains 50 mM or 150 mM NaCl, respectively.

| Kd [nM] | Molecule |
| --- | --- |
| 380 ± 60 | B1 |

Target: T1, Spacer (residues 587–674) of UHRF1
Assay: ITC, interaction of UHRF1 domains with the Spacer
Assay type: binding
Conditions: ITC stoichiometry, Spacer in syringe
Description: (§1) For competition ITC experiments: the indicated proteins were pre-incubated with competitive peptide, protein or hm-DNA (at 1:2 molar ratio if not specified) for 10 min followed by ITC measurements as described above. Proteins, DNA and peptides were prepared within ITC buffer containing 10 mM HEPES, pH 8.0, 100 mM NaCl. The data were fitted by software Origin 7.0. All ITC results were summarized in Supplementary Table 2 and raw data were shown in Supplementary Fig. 9.

| N | Molecule |
| --- | --- |
| 0.944±0.0158 | B2 |
| 0.991±0.0134 | B3 |

Same assay, conditions: ITC, 18 °C; Spacer in syringe, named protein in cell; 10 mM HEPES pH 8.0, 100 mM NaCl

| Kd [nM] | Molecule |
| --- | --- |
| 2690 | B2 |
| 1480 | B3 |

Same assay, conditions: ITC, Fig. 3e; wild-type or mutant TTD in syringe, Spacer in cell

| Kd [nM] | KD | Molecule |
| --- | --- | --- |
| 1590 | – | B3 |
| – | abolished | B4 |

Same assay, conditions: ITC, Spacer in syringe

| ΔH [cal/mol] | ΔS [cal/mol/deg] | Molecule |
| --- | --- | --- |
| -1.399E4±290.7 | -22.5 | B2 |
| -1.614E4±297.4 | -28.7 | B3 |

Same assay, conditions: ITC, molar ratio of TTD-PHD or TTD: H3K9me3=1:2

| interaction between the Spacer and the named protein in the presence of H3K9me3 | Molecule |
| --- | --- |
| No detectable interaction | B3 |

Target: T2, TTD (residues 134–285) of UHRF1
Assay: ITC, TTD titrated into Spacer variants and other UHRF1 fragments
Assay type: binding
Conditions: ITC stoichiometry, TTD in syringe
Description: as §1

| N | Molecule |
| --- | --- |
| 1.06±0.00978 | B5 |
| 1.1±0.0102 | B6 |
| 0.967±0.0122 | B7 |
| 0.988±0.0147 | B8 |
| 1.01±0.00976 | B9 |
| 0.659±0.0209 | B10 |
| 1.08±0.0104 | B11 |
| 0.998±0.0189 | B12 |
| 1.06±0.0256 | B13 |
| 1.03±0.0102 | B14 |
| 0.891±0.0733 | B15 |

Same assay, conditions: ITC, TTD in syringe

| ΔS [cal/mol/deg] | ΔH | Molecule |
| --- | --- | --- |
| -12.9 | – | B5 |
| -9.46 | – | B6 |
| 2.57 | -6.475 ± 0.1071 kcal/mol | B7 |
| -0.906 | -7.634 ± 0.1561 kcal/mol | B8 |
| -10.2 | – | B9 |
| -5.07 | -8.45 ± 0.3659 kcal/mol | B10 |
| -14.9 | -1.219E4±159.8 cal/mol | B11 |
| -19.3 | – | B12 |
| -7.04 | -8.277 ± 0.352 kcal/mol | B13 |
| -11.4 | -1.125E4±153.8 cal/mol | B14 |
| 9.58 | -3.833 ± 0.4259 kcal/mol | B15 |
